Assays:
[1] = target: Cyno Monocytes / Cyno Neutrophils (Macaca fascicularis); assay: flow cytometry, cyno whole blood, neutrophils
[2] = target: Rhesus Monocytes / Rhesus Neutrophils (Macaca mulatta); assay: flow cytometry, rhesus whole blood, monocytes
[3] = target: human LILRB2 expressed on cells (human) (UniProt Q8N423); assay: flow cytometry, human whole blood, neutrophils
[4] = target: human LILRB2 expressed on cells (human) (UniProt Q8N423); assay: flow cytometry, human whole blood, monocytes
human LILRA1 (human) = human LILRA1 (human) (UniProt O75019); assay: flow cytometry, LILRA1 CHOs
[5] = target: Rhesus Monocytes / Rhesus Neutrophils (Macaca mulatta); assay: flow cytometry, rhesus whole blood, neutrophils
human LILRA4 (human) = human LILRA4 (human) (UniProt P59901); assay: flow cytometry, LILRA4 CHOs
[6] = target: Cyno Monocytes / Cyno Neutrophils (Macaca fascicularis); assay: flow cytometry, cyno whole blood, monocytes

human LILRB2 expressed on cells (human), sequence (Q8N423 other isoform, or with tags, fused parts or gaps limits assumed): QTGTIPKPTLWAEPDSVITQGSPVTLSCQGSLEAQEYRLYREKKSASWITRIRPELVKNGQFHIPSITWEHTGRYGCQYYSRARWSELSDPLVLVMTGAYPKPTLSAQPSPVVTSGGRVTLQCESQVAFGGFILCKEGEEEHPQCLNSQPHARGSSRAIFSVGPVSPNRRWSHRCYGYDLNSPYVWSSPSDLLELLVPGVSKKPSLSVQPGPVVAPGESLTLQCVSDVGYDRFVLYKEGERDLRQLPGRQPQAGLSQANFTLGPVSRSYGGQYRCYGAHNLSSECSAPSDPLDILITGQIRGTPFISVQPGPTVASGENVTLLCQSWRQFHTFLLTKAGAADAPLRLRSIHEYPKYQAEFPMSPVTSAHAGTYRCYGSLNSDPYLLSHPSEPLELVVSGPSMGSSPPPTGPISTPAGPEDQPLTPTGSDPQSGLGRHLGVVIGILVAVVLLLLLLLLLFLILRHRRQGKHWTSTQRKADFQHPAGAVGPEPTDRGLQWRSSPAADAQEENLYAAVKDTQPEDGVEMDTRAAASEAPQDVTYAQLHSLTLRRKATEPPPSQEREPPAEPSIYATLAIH
human LILRA4 (human), sequence (P59901 other isoform, or with tags, fused parts or gaps limits assumed): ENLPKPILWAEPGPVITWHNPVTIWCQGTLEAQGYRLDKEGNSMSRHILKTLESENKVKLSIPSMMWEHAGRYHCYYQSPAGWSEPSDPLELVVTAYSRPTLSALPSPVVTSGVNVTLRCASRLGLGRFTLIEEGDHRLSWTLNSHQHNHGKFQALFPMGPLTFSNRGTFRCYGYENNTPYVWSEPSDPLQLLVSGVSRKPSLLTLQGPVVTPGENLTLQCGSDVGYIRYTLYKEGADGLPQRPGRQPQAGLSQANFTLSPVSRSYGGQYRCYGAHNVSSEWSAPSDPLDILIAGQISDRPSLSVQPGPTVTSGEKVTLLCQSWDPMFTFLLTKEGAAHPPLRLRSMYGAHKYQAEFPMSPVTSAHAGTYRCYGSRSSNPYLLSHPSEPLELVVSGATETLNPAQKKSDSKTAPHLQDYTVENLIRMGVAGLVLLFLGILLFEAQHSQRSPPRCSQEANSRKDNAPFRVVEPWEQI
human LILRA1 (human), sequence (O75019 17-489 limits assumed): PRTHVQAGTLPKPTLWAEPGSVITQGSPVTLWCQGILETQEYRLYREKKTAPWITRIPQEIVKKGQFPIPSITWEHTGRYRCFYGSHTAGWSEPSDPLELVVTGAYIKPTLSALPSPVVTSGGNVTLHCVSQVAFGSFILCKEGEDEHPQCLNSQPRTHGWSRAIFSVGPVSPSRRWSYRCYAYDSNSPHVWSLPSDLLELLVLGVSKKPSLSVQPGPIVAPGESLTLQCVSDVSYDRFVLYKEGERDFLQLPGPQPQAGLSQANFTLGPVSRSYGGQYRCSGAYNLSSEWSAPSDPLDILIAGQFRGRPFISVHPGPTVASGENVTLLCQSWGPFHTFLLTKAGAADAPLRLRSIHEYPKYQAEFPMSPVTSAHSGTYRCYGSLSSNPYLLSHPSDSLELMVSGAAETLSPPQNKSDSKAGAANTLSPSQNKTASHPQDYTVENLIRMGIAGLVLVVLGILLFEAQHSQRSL

isotype control mAb (antibody)
1: Cyno Neutrophils binding (fold over iso) (fold over iso) [1] | Rhesus Monocytes binding (fold over iso) (fold over iso) [2] | Human Neutrophils binding (fold over iso) (fold over iso) [3] | Human Monocytes binding (fold over iso) (fold over iso) [4] | binding (fold over iso) (fold over iso) (human LILRA1 (human)) | Rhesus Neutrophils binding (fold over iso) (fold over iso) [5] | binding (fold over iso) (fold over iso) (human LILRA4 (human)) | Cyno Monocytes binding (fold over iso) (fold over iso) [6]
